From patent publication US20230105667A1, “MESENCHYMAL STROMAL CELLS AND EXTRACELLULAR VESICLES FOR TREATING VIRAL INFECTIONS, INFLAMMATION, AND TISSUE FIBROSIS” (EXOSTEM BIOTEC LTD., priority 2020, published 2023)

Target: human ACE2 on cells (human lung epithelial cells expressing ACE2 (human) (UniProt Q9BYF1))
Assay: cell-based or functional assay

Chain of UniProt Q9BYF1 (Q9BYF1 18-805 limits assumed): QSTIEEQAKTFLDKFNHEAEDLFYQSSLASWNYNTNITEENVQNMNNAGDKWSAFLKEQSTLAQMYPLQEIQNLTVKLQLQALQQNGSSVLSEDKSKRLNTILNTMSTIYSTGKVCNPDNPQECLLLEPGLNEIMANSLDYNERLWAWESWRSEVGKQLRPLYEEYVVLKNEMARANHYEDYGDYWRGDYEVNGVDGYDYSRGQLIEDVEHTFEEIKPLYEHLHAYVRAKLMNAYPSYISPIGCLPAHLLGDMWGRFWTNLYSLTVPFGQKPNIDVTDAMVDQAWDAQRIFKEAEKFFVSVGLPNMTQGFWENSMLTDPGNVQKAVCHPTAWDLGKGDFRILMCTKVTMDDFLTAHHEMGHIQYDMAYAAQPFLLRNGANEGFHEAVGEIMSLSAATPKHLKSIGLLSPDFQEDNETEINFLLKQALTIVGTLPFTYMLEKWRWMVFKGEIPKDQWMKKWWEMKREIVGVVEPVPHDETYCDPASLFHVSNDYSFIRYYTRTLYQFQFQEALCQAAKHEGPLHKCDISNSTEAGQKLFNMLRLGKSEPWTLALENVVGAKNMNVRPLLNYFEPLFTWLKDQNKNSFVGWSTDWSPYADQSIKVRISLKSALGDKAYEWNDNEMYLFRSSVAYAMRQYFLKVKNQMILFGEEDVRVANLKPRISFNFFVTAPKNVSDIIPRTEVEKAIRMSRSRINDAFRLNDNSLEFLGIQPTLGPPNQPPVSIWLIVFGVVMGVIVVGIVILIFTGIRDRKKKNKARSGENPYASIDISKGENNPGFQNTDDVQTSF

“SARS-CoV-2 receptor-binding-domain (RBD) displayed on extracellular vesicles from MSCs (ligand)” showed a TNFα levels in HBE cells treated with RBD recombinant protein of 50%.
